Target: Human pro-insulin fused to the Gal4 DNA binding domain (human)
Sequence (P01308 25-110): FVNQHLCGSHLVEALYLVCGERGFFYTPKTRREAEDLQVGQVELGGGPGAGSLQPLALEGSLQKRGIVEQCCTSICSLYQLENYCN

| Substance | glucose level of adult S. japonicum worms cultured 24 h with 20% anti-LD1 + anti-LD2 mouse antisera (medium with foetal bovine serum as source of insulin; endogenous receptors), against normal serum [% reduction] |
| --- | --- |
| Ligand domain of Schistosoma japonicum insulin receptor 1 (SjIR-1), D59 to E411 (domain or fragment) | 65 |
| Ligand domain of Schistosoma japonicum insulin receptor 2 (SjIR-2), Q7 to K399 (domain or fragment) | 65 |

From PMC2844434
